Source: patent US20200370067

Columns and labels:
[1] = system: SHS231 right TALEN (synthetic); assay: cell_activity; details: as pair with left TALEN; 1/81 clones, 293T
[2] = system: SHS231 left TALEN (synthetic); assay: cell_activity; details: as pair with right TALEN; 1/81 clones, 293T

| Sequence | activity (% targeted integration) [1] | activity (% targeted integration) [2] |
| --- | --- | --- |
| TGTATGCTTTCCTCTTGTTA (double strand) [SHS231 right TALEN half-site] | 1.23 |  |
| TTGGCTAGGGCTAAGGATTA (double strand) [SHS231 left TALEN half-site] |  | 1.23 |
